Data on 16 sequences can be found in the nanobody polyreactivity screen of Harvey et al. (2022).

A short description of this series: yeast display, Sf9 membrane polyspecificity reagent, FACS + sequencing; frameworks hold sequencing errors. The method, boiled down:
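Galactose-induced (36–48 hours) yeast carrying a synthetic nanobody display library were exposed to 10% biotinylated, detergent-solubilized Sf9 membrane reagent at 4 °C for 1 hour. FACS followed streptavidin microbead enrichment, using low and high (top ~1%) gates for expression (anti-HA) and reagent binding (streptavidin). Colony PCR, MiSeq 2 × 250 sequencing and CDR-length filtering followed. Labels for polyreactivity reflect the gate of origin.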
In the case of “QVQLVESGGGLVQAGGSLRLSCAASGSTFEYYAMGWYRQAPGKERELVAAITTSGGITYYADSVKGRFTISRDNAKNTVYLQMNSLKPEDTAVYYCNADAVPLPTLVTYLYDYWGQGTQVTVSS”, the “polyreactivity (PSR sort gate)” value was “low polyreactivity”.

For the sequence “QVQLVESGGGLVQAGGSLRLSCAASGSTFEYYAMGWYRQAPGKERELVATISIDGRTNYADSVKGRFTISRDNAKNTVYLQMNSLKPEDTAVYYCAADTNWSPGYIMYYRSDYWGQGTQVTVSS”, the “polyreactivity (PSR sort gate)” value is given as “low polyreactivity”.

Take “QVQLVESGGGLVQAGGSLRLSCAASGSTFEYYAMGWYRQAPGKERELVAVITNGGSTNYADSVKGRFTISRDNAKNTVYLQKNSLKPEDTAVYYCNAERRVFYYFDYDFWGLGTQVTVSS”: the “polyreactivity (PSR sort gate)” value is on record as “low polyreactivity”.

Take “QVQLVESGGGLVQAGGSLRLSCAASGSTFFDYAMGWYRQAPGKVRELVAVISDGGTTTYADSVKGRFTISRDNAKNTVYLQMNSLKPEDTAVYYCAAENQDGLLVILGGYGYWGQGTQVTVSS”: the “polyreactivity (PSR sort gate)” value is given as “low polyreactivity”.

In the case of “QVQLVESGGGLVQAGGSLRLSCAASGSTFFFNAMGWYRQAPGKERELVAGISSSGGSTHYADSVKGRFTISRDNAKNTVYLQMNSLKPEDTAVYYCNAQQYLPSEGDYWGQGTQVTVSS”, the “polyreactivity (PSR sort gate)” value is “low polyreactivity”.

As to “QVQLVESGGGLVQAGGSLRLSCAASGSTFFGNTMGWYRQAPGKERELVATITRRGGSTYYADSVKGRFTMSRDNAKNTVYLQMNSLKPEDTAVYYCANRGPYTKYDYWGQGTQVTVSS”, the “polyreactivity (PSR sort gate)” value is on record as “low polyreactivity”.

“QVQLVESGGGLVQAGGSLRLSCAASGSTFFGYDMGWYRQAPGTERELVATINSGGSTYYADSVKGRFTISRDNAKYTVYLQMNSLKPEDTAVYYCAARPSYLYPFDRTGEYDYWGQGTQVTVSS”: the “polyreactivity (PSR sort gate)” value was “high polyreactivity”.

On to “QVQLVESGGGLVQAGGSLRLSCAASGSTFFHYAMGWYRQAPGKERELVAAISTGGTTYYADSVKGRFTISRDNAKNTVYLQMNSLKPEDSAVYYCAAEAYGLSGLYYYWGQCTQVTVSS”, for which the “polyreactivity (PSR sort gate)” value is on record as “high polyreactivity”.

As for “QVQLVESGGGLVQAGGSLRLSCAASGSTFFINAMGWYRQGPGKERELVASISYSGGSTYYAHSVKGRFTISRDNAKNTVYLQLNSLKPEDTAVYYCNADVRVFLHYYKYNYWGQGTQVTVSS”, the “polyreactivity (PSR sort gate)” value is listed as “low polyreactivity”.

For “QVQLVESGGGLVQAGGSLRLSCAASGSTFFLNAMGWYRQAPGKERELVAAISYSDSGTNYADSVKGRFTISRDNAKNTVYLQMNSLKPEDTAVYYCATAVRPWYVTSGNYWGQGTQVTVSS”, the “polyreactivity (PSR sort gate)” value is reported as “low polyreactivity”.

“QVQLVESGGGLVQAGGSLRLSCAASGSTFFLYAMGWYRQAPGKERELVAAISSGGSTNYADSVKGRFTISRDNAKNTVYLQMNSLKPEDTAVYYCAADAVRSHDYWGQGTQVTVSS”: the “polyreactivity (PSR sort gate)” value is given as “low polyreactivity”.

“QVQLVESGGGLVQAGGSLRLSCAASGSTFFLYAMGWYRQAPGKERELVAAITWRSGRTYYADSVKGRFTISRDNAKNTVYLQMNSLKPEDTAVYYCAADYVLGEVVRYDYWGQGTQVTVSS”: the “polyreactivity (PSR sort gate)” value is “high polyreactivity”.

With “QVQLVESGGGLVQAGGSLRLSCAASGSTFFPYAMGWYRQAPGKERELVAAITSGGRTKYADSVKGRFTISRDNAMNTVYLQMNSLKPEDTAVYYCAARGLIKEYGGPYRRFGYWGQGTQVTVSS”, the “polyreactivity (PSR sort gate)” value is “high polyreactivity”.

Take “QVQLVESGGGLVQAGGSLRLSCAASGSTFFPYAMGWYRQAPGKERELVAGISSDGGTSYADSVKGRFTISRDNAKNTVYLQMNSLKPEDTAVYYCAALQADRGGWYDYWGQGTQVTVSS”: the “polyreactivity (PSR sort gate)” value is “low polyreactivity”.

As for “QVQLVESGGGLVQAGGSLRLSCAASGSTFFPYAMGWYRQAPGKERELVATINYSGGGTYYADSVKGRFTISRDNAKNTVYLQMNSLKPEDTAVYYCAKTLARFDRGYYWGQGTQVTVSS”, the “polyreactivity (PSR sort gate)” value is given as “low polyreactivity”.

As to “QVQLVESGGGLVQAGGSLRLSCAASGSTFFSYAMGWYRQAPGKEREFVAAISWIDDGTYYADSVKGRFTISRDNAKNTVYLQMNSLKPEDTAVYYCAADIGAYRTWDYEYWGQGTQVTVSS”, the “polyreactivity (PSR sort gate)” value is “low polyreactivity”.
